B1: Ras-related protein Rab-8A (Canis familiaris (dog)), P61007 (parent)
chain: MAKTYDYLFKLLLIGDSGVGKTCVLFRFSEDAFNSTFISTIGIDFKIRTIELDGKRIKLQIWDTAGQERFRTITTAYYRGAMGIMLVYDITNEKSFDNIRNWIRNIEEHASADVEKMILGNKCDVNDKRQVSKERGEKLALDYGIKFMETSAKANINVENAFFTLARDIKAKMDKKLEGNSPQGSNQGVKITPDQQKRSSFFRCVLL
partner: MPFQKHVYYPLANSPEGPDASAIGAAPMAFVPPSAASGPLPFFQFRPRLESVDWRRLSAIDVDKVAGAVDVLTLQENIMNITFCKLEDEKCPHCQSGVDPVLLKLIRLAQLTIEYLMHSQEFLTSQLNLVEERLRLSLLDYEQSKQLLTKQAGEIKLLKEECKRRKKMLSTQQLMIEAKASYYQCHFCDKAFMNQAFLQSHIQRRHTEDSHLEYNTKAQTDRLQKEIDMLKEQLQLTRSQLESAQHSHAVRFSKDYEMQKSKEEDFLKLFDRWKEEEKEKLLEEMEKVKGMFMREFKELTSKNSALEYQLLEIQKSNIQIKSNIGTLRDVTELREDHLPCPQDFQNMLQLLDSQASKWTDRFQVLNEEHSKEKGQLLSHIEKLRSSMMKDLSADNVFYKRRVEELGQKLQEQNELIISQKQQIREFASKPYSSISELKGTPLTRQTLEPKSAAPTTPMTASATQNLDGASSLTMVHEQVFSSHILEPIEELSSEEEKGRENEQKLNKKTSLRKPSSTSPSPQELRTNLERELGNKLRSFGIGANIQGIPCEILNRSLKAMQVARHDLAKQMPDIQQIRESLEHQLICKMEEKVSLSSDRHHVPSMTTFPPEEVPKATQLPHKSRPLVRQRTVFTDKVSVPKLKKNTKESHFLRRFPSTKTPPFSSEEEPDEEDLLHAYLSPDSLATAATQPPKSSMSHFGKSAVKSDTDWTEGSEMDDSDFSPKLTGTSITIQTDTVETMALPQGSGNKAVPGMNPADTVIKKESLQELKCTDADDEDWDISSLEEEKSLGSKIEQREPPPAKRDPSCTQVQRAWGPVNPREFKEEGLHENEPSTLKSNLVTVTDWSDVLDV
B2: Ras-related protein Rab-8A (Canis familiaris (dog)), P61007 (parent)
chain: B1 chain
partner: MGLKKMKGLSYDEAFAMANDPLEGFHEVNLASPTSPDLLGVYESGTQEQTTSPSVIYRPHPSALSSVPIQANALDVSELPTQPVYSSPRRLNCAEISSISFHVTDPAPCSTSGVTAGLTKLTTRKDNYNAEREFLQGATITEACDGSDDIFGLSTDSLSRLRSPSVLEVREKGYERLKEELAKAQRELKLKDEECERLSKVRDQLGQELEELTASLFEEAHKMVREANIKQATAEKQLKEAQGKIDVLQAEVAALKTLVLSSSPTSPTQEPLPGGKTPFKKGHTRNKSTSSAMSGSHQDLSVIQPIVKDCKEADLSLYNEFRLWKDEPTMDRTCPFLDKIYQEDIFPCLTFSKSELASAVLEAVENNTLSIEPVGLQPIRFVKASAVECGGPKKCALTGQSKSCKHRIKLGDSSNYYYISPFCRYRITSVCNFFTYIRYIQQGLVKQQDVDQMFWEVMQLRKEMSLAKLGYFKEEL

Variants of: B1
Settings: with Dzip1, Q8BMD2-1

Row | effect of a mutation on the interaction | Variant
1 | disrupting interaction strength | Q67L
2 | increasing interaction strength | T22N

Variants of: B2
Settings: with rab3i_human RAB3IP

Row | effect of a mutation on the interaction | Variant
3 | increasing interaction strength | T22N

Reference: IntAct's records for PubMed 25860027
